Assay [1] deals with T1, human LILRB1 expressed on CHOK1 cells (CHOK1-hLILRB1) (human, UniProt Q8NHL6 24-650).
T1 construct: whole, on cells; also called CHOK1-LILRB1
Kind of assay: FACS binding to CHOK1-hLILRB1 cells.

For assay [2], the target named is T2, human LILRB2 expressed on CHOK1 cells (CHOK1-hLILRB2) (human, UniProt Q8N423 22-597).
T2 construct: whole, on cells; also called CHOK1-LILRB2
The experiment in a line: FACS binding to CHOK1-hLILRB2 cells.

Assay [3] concerns the target T2, human LILRB2 expressed on CHOK1 cells …. Kind of assay: cell based RBA, flow cytometry: blocking of HLA-G binding to CHOK1-hLILRB2 cells. A general note: In flow cytometry, cells or beads pass a laser one at a time.
The target in a further assay is T3, human LILRB1-his (human, UniProt Q8NHL6 24-458, limits assumed).
T3 construct: Analyte of the Biacore run; not shown: His tag
T3 sequence (Q8NHL6 24-458 limits assumed): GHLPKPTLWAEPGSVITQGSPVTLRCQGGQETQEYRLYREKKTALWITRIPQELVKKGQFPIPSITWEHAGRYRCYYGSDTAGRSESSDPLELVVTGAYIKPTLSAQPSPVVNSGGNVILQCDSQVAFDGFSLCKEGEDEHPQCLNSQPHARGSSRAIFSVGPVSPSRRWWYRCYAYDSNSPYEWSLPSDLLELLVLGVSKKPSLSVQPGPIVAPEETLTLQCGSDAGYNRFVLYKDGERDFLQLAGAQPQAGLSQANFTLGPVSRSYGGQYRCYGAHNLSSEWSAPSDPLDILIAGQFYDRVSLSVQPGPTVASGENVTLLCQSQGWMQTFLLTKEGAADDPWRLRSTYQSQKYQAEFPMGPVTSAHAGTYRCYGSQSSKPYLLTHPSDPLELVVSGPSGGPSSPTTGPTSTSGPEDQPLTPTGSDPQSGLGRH
The experiment in a line: SPR (Biacore 8K), antibody captured via Fc, LILRB1-his as analyte, 1:1 model. On the technique in general: In SPR one partner is held on a chip, and binding of the other changes the refractive index at the surface.

Here are results for seven molecules from patent publication US20260234247A1 (published 2026).

A word on the EC50: it is the concentration giving half of the maximal effect. A lower EC50 goes with higher potency in that assay. As a reminder, the Kd is the equilibrium constant for the complex coming apart. Low readings indicate a tighter complex, high ones a looser complex. In general, koff refers to the first-order rate constant of dissociation. Lower therefore signals slow dissociation. The term kon denotes a measure of how fast the partners come together. A low value points to slow association.

T1 sequence (Q8NHL6 24-650): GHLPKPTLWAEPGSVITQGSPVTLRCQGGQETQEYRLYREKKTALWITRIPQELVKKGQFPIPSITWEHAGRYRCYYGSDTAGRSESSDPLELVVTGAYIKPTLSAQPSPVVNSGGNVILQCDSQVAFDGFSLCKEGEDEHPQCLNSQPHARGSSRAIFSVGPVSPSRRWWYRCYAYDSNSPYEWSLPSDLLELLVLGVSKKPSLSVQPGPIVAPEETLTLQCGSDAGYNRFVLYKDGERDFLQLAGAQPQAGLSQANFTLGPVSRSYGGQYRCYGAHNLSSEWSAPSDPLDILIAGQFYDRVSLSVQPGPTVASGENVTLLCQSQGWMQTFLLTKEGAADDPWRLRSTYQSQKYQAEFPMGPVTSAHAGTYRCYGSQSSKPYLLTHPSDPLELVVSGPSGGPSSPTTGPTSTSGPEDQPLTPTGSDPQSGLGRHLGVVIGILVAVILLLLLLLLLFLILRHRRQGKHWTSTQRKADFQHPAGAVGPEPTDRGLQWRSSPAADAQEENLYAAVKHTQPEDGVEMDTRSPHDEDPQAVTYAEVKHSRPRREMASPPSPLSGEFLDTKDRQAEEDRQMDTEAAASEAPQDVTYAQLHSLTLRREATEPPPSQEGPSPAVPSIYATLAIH
T2 sequence (Q8N423 22-597): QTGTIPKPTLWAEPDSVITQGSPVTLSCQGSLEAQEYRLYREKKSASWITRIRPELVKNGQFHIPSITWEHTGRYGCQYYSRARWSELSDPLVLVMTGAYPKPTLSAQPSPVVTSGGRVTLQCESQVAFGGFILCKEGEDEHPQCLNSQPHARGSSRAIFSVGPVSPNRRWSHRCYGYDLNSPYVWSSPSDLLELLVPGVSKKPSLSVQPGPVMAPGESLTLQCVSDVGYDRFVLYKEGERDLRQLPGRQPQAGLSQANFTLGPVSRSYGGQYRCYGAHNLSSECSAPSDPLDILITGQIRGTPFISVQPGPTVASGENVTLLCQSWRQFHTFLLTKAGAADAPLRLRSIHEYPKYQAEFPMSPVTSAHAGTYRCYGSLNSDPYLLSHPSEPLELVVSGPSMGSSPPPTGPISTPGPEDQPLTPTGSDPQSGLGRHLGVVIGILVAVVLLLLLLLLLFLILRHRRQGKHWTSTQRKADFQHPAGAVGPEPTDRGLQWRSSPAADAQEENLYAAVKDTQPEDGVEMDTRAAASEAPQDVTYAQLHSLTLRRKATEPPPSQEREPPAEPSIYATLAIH

B1: J19.h1 (antibody, human IgG4 S228P, kappa, V domains shown)
VH: QITLKESGPTLVKPTQTLTLTCTFSGFSLNTYAMGVSWIRQPPGKALEWLASIWWNGNKYNNPSLKSRLTVTKDTSKNQVVLTMTNMDPVDTATYYCAHSRIIRFTDYVMDAWGQGTLVTVSS
VL: DIQMTQSPSSLSTSVGDRVTITCRASEDIYNDLAWYQQKPGKAPKLLIYNANSLHTGVASRFSGSGSGTDFTFTISSLQPEDVATYFCQQYYDYPLTFGQGTKLEIKR
Consider B1, for which, in assay [1], the binding result is reported as “no binding”. For the same molecule, a half-maximal response in assay [2] (EC50) required 0.15 nM. Besides, in assay [3], it took 0.0889 nM to reach a half-maximal effect (EC50) and the “Top Inhibition” value was determined as 68.7%.

B2: LK-RB1-16.h2 (antibody, human IgG4, kappa, V domains shown)
VH: QVQLQESGPGLVKPSETLSLTCTVSGFSLISNAISWIRQPPGKGLEWLGVIWGDGNTIYHSALRSRLTISKDTSKNQVFLKLSSVTAADTAVYYCAKANWDGYYFDYWGQGTTVTVSS
VL: DIQMTQSPSTLSASVGDRVTITCHASQSVDFWLNWYQQKPGKAPKLLIYKASNLHTGVPSRFSGSGSGTEFTLTISSLQPDDFATYYCQQGQSYPLTFGQGTKLEIKR
notes: Humanized form of LK-RB1-16
On to B2, for which, in the assay with human LILRB1-his, the dissociation constant Kd is 0.235 nM, the koff came out at 0.000112 s⁻¹ and the on-rate constant (kon) came to 476000 M⁻¹ s⁻¹.

B3: LK-RB2-45 (antibody, human IgG4 S228P, kappa, V domains shown)
VH: QIQLVQSGPELKKPGETVKISCKASGYTFTTYGMSWVKQTPGKGLQWMGWINVYSGVPTYADDFKGRFAFSLEASASTAYLQINNLKNEDTASYFCARRGDYDGHYFDYWGQGTTLTVSS
VL: DIVMTQSPATLSVTPGDRVSLSCRASQSISDYLNWYQQKSHESPRLLIKYVSQSISGIPSRFSGSGSGSDFTLSINSVEPEDIGVYYCQNGHNFPLTFGGGTKLELKR
Regarding B3, the results for the EC50 in assay [1], in assay [2] and in assay [3] were 1.48 nM, 0.3 nM and 0.0673 nM, respectively. Further, in assay [3], the “Top Inhibition” value worked out at 81.6%.

B4: LK-RB2-37 (antibody, human IgG4 S228P, kappa, V domains shown)
VH: QIQLVQSGPEVKKPGETVKISCKASGYTFTTYGMSWVKQAPGKGLKWMGWINTYSGVPTYADDFKGRFAFSLETSVSTAYLQINNLKNEDTSTYFCARRRDYDGYAMDYWGQGTSVTVSS
VL: DIVMSQSPSSLAVSVGEKVTMSCKSSQSLLYSGNQKNYLAWYQQKPGQSPKLLIYWASARESGVPDRFTGSGSGTDFTLTISSVKAEDLAVYYCQQYYTYPFTFGSGTKLEIKR
Regarding B4, the binding result in assay [1] is given as “no binding”. The results for the half-maximal effective concentration (EC50) in assay [2] and in assay [3] were 0.34 nM and 0.268 nM, respectively. Moreover, the “Top Inhibition” value in assay [3] is 77.3%.

B5: LK-RB1-16 (antibody, human IgG4 S228P, kappa, V domains shown)
VH: QVQLKESGPGLVAPSQSLSITCTVSGFSLISNAISWVRQPPGKGLEWLGVIWGDGNTIYHSALRSRLTISKDNSKSQVFLKLNSLQIDDTATYYCAKANWDGYYFDYWGQGTTLTVSS
VL: DIQMNQSPSSLSASLGDTITITCHASQSVDFWLNWYQQKPGNIPKLLISKASNLHTGVPSRFSGSGSGTTFTLTISSLQPEDIATYYCQQGQSYPLTFGSGTKLEIKR
notes: Anti-LILRB1 antibody from mouse hybridoma; parental antibody of LK-RB1-16.h1 to h3
In the assay with human LILRB1-his, B5 showed a Kd of 0.194 nM, a koff of 0.000108 s⁻¹ and an on-rate constant (kon) of 556000 M⁻¹ s⁻¹.

B6: LK-RB2-41 (antibody, human IgG4 S228P, kappa, V domains shown)
VH: EVQLQLSGPELVKPGASVKMSCKASGYTFTDYNMHWVKQSHGKSLEWIGYINPNNGGTTYNQKFKGKATLTVNKSSSTAYMELRSLTSEDSAVYYCARAPYYGSSYLLAYWGQGTLVTVSA
VL: DIVMTQSHKFMSTSVGDRVSITCKASQDVSTAVAWYQQKPGQSPKLLIYSASYRYTGVPDRFTGSGSGTDFTFTISSVQAEDLAIYYCQQHYSIPWTFGGGTKLEIKR
For the molecule B6, the binding result in assay [1] is listed as “no binding”. The molecule also came in with a concentration giving a half-maximal response (EC50) in assay [2] of 0.37 nM. In assay [3], the EC50 amounted to 0.157 nM and the “Top Inhibition” value is 80.1%.

B7: LK-RB2-40 (antibody, human IgG4 S228P, kappa, V domains shown)
VH: DVQLQESGPGLVKPSQSLSLTCSVTGYSITSGYYWNWIRQFPGNKLEWMAYISYDGSNNYNPSLKNRISITRDTSKNQFFLKLNSVTTEDTATYYCAREEGTAQATLGYFDYWGQGTTLTVSS
VL: DIQMTQSPASLSVSVGETVTITCRASENIYSNLAWYQQKQGKSPQLLVYAATNLADGVPSRFSGSGSGTQYSLKINSLQSEDFGSYYCQHFWDTPFTFGSGTKLEIKR
Take B7: the binding result in assay [1] is “no binding”. In assay [2], the response was half-maximal at 0.53 nM (EC50). In assay [3], the 50% effective concentration (EC50) was found to be 0.445 nM and the “Top Inhibition” value came to 79.4%.
